In publication PMC8913647 one finds stoichiometry N data, which are given here for one substance.

Experiment [1] deals with major capsid protein VP1 of GII.4 norovirus Houston/TCH186/2002 (HOV), assembled as virus-like particle (human norovirus GII.4 (Houston/TCH186/2002, HOV)). As to the kind of experiment: cryo-EM structure; GII.4 HOV VLPs (0.24 mg/ml) in PBS pH 6.0 on graphene oxide coated grids; single-particle reconstruction with icosahedral symmetry imposed (cryoSPARC); ~3.8 Å.
Experiment [2] has the same target. As to the kind of experiment: crystal structure; GII.4 HOV VLP crystallised by hanging-drop vapor diffusion at room temperature; space group I222, 45 VP1 copies in the asymmetric unit, refined with NCS without imposing icosahedral symmetry; 3.0 Å.

One may read the stoichiometry N as the number of molecules, sites or subunits per partner or assembly. In the case of “major capsid protein VP1 of GII.4 norovirus Houston/TCH186/2002 (HOV), assembled as virus-like particle (natural protein)”, the stoichiometry N in experiment [1] and in experiment [2] was 180 throughout.
